Source: US9879094B2, “Nucleic acid molecules encoding for BACE1 antibodies” (Genentech, Inc., priority 2010, dated 2018)

B1: LC4: affinity matured clone derived from Fab5 (antibody, V domains shown)
VL: DIQMTQSPSSLSASVGDRVTITCRASQSVSSAVAWYQQKPGKAPKLLIYSASSLYSGVPSRFSGSGSGTDFTLTISSLQPEDFATYYCQQYSYSLLTFGQGTKVEIK
VH: EISEVQLVESGGGLVQPGGSLRLSCAASGFNLSYSYIHWVRQAPGKGLEWVASIYSSYGSTYYADSVKGRFTISADTSKNTAYLQMNSLRAEDTAVYYCARSYHHSDKYYYAWSYALDYWGQGTLVTVSS
B2: LC40 (antibody, V domains shown)
VL: DIQMTQSPSSLSASVGDRVTITCRASQYSYSYSVAWYQQKPGKAPKLLISYASYLYSGVPSRFSGSGSGTDFTLTISSLQPEDFATYYCQQYSYSYSPITFGQGTKVEIK
VH: EISEVQLVESGGGLVQPGGSLRLSCAASGFNVSSSSMHWVRQAPGKGLEWVASIYPYSSSTSYADSVKGRFTISADTSKNTAYLQMNSLRAEDTAVYYCARYSYYSYGIDYWGQGTLVTVSS

Molecular target: BACE1 (Homo sapiens, UniProt P56817)
Assay: HTRF BACE1 enzyme activity assay (long peptide Bi27)
Type: biochemical
Conditions: purified affinity matured Fabs
Method: The HTRF assay was performed as follows. […] The proteolytic reaction mixture was incubated at ambient temperature for 75 minutes and was quenched by the addition of 5 μL HTRF detection mixture containing 2 nM Streptavidin-D2 and 150 nM of 6E10 anti-amyloid beta antibody (Covance, Emoryville, Calif.) labeled with Europium cryptate in detection buffer (200 mM Tris pH 8.0, 20 mM EDTA, 0.1% BSA, and 0.8M KF). The final reaction mixture was incubated at ambient temperature for 60 minutes and the TR-FRET signal was measured using an EnVision Multilabel Plate Reader™ (Perkin-Elmer) at an excitation wavelength of 320 nm and emission wavelengths of 615 and 665 nm. Reactions lacking BACE1 enzyme (0 BACE) and reactions containing lacking anti-BACE1 antibodies (PBS (100% BACE1 Activity) were used as controls.
Fab proteins of 6 clones were purified and subjected for HTRF enzyme activity assay, as described above.
The affinity matured YW412.8.31 anti-BACE1 antibody was tested in a HTRF assay as described in Example 1. […] Additionally, reactions using a short FRET peptide (Rh-[…]-quencher (SEQ ID NO:54), Invitrogen) were also performed identically to the HTRF reactions. The resulting fluorogenic products from the control reactions were measured as above, but at an excitation wavelength of 545 nm and an emission wavelength of 585 nm. Obtained data were analyzed using GraphPad Prism 5™ (LaJolla, Calif.).

Chain of BACE1 (P56817 22-457): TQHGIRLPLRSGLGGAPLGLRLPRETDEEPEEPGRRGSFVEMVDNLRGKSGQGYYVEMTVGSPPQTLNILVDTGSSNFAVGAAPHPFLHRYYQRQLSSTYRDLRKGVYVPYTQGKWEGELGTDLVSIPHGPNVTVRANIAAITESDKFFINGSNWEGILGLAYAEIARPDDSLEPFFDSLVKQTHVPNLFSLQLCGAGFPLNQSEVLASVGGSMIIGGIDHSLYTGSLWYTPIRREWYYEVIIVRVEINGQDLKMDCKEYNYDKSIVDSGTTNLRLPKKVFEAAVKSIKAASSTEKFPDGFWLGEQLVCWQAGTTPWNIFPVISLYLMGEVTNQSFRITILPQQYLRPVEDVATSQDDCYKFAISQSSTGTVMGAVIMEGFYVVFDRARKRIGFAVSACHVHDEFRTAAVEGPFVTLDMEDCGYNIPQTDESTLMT

| Molecule | inhibition activity compared to parent Fab |
| --- | --- |
| B1 | significant improved inhibition |
| B2 | lost its inhibition activity |
